Our source for the Ki and Kd values is patent US7060449.

T1: rat GALR2 (rat)
T1 chain: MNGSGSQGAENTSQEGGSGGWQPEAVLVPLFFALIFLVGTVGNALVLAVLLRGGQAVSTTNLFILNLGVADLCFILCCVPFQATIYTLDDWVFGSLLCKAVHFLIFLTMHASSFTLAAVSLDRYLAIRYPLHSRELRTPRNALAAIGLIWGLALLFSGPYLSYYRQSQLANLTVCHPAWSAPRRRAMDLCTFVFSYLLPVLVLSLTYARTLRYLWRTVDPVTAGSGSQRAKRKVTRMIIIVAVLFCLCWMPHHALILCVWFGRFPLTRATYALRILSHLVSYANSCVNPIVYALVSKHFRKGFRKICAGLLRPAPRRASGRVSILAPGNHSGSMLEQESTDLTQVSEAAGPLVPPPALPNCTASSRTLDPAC

As usually defined, the Ki is a measure of affinity in units of concentration, obtained from inhibition or displacement. Read a high Ki as lower affinity. Usually Kd stands for a measure of binding affinity in units of concentration. Read a high Kd as lower affinity.

One assay concerns the target T1, rat GALR2 (rat). Put plainly: competition. The note with it: modification not given.
As to GWTLNSAGALLGPHAI [[Ala9]galanin(1-16), P07480], the inhibition constant Ki was > 1000 nM.
Consider GWTLASAGYLLGPHAI [[Ala5]galanin(1-16), P07480], for which the inhibitory constant (Ki) was > 620 nM.
On to GFTLNSAGYLLGPHAI [Phe2-galanin 1-16, P07480], for which the Ki was > 1000 nM.
Still for that read-out and setting: the same measure for GWTLNSAGYLLGPHAIDNHRSFHDKYGLA [[D-Trp2]porcine galanin(1-29), P07480]: 6.46 nM; for GWTLNSAGYLLGPHAIDNHRSFHDKYGLA [porcine galanin(1-29), P07480]: 0.447 nM.
Consider DNHRSFHDKYGLA [porcine galanin 17-29, P07480], for which the Ki is > 1000 nM.
For the molecule GWTLNSAGY [porcine galanin 1-9, P07480], the Ki was > 1000 nM.
Still for that read-out and setting: the figure for GFTLNSAGYLLGPHAIDNHRSFHDKYGLA [[Phe2]porcine galanin(1-29), P07480] is > 1000 nM; for GATLNSAGYLLGPHAI [porcine Ala2-galanin 1-16, P07480] it is > 1000 nM.

For the next assay, the target named is T1, rat GALR2 (rat). Put plainly: radioligand. The conditions noted are these: modification not given.
The molecule GWTLNSAGYLLGPHAIDNHRSFHDKYGLA [[125I]porcine galanin, P07480] yielded a Kd of 0.2 nM.
